Measured values taken from the DeepSol protein solubility set.

assay: soluble on expression in E. coli; label from the status in PepcDB or PDB records

Sequence | soluble on expression in E. coli
MSLESGFLEDAQANLTLRNFYFNRNFTNPTKAQGKAEEWTQSFILDAKSGFTQGTVGFGMDVLGLYSLKLDGGKGTGGTQLLPLDHDGRPADNFGRLGVAFKARLSQTEVKVGEWMPVLPILRSDDGRSLPQTFRGGQITSKEIAGLTLYGGQFRANSPRDDSSMSDMSMFGKAAFTSDRFNFQGAEYAFNDKRTQIALWNAQLKDIYSQQFINLIHSQPLGDWTLGANLGFFYGKEDGSARAGDMENRTWSGLFSAKYGGNTFYVGLQKLTGDSAWMRVNGTSGGTLANDSYNASYDNAKEKSWQVRHDYNFAALGVPGLTLMNRYISGSNVHTATVSDGKEWGRESEVAYTVQSGTLKNLNLKWRNSTMRRDFSNNEFDENRLIISYPLSLLEGHHHHHH | soluble
MSLETSRNLSNFFDVSADLLSISNMQGRFVKVNRAWETALGYPIEALEGVPFLPLLHPEDQQSTRVQINRIEVDDEVNGFVNRYRRADGSYCQLEWRARRCDDLVFGVARDVTERLRIQAEMAEARDAAEAANRAKNDFLANMSHEIRTPLNGVIALAAALDETPLTSKQAEMVAMIRRSGETLERLVSDILDVSKIEAGQMTLQPQAFDLGALVDGLLDVTRLRAKEKGVAVRLERSPTAAGGFLGDSVRIGQVLSNLFSNAVKFTDQGEVIVRVDVEEAGNGQAARLFVEVEDTGVGFDAEKAEMIFQRFNQADSTITRRFGGSGLGLSISKTLVEMMGGEITAQSSPGAGSLFRVTLPLSRTQMGPDAEIDAPRSAAPGEGLKVLLAEDHPINQRVVQLILEPCGAAVTVVENGAQAVEAMASGAFDVVLMDMQMPVMDGLAATRAIRAREGEGQRTPIIMLSANAMDVHRREALQAGADLHVPKPITIAALLDSIGQVMAREGHHHHHH | soluble
MSLETTVITADRMIDVANGKVVKQAAVIVTDNIITASGRLKDLTVPNEATRIDLGNATLMPGLMDMHVHLTSDATRHGYKRLEVSLPRAAITGVKHAKATLDAGFTTVRNVGAPGFADVALRDAINAGDVVGPRMFVAGPSLGVTGGHCDSNLLPYEYDNYSEGVADGPWEVRKKVRRNIKYGATVIKFCATGGVLSKGTKVGAQQYTFEEMKALIDEAHLRGLTVATHAHGTNGIKAAIKASVDSVEHVSLLDDEAIDLAKKNGTYFSMDIYVTEYILGEGEKAGILEESLNKERIVGKTQRENFEKAVKAGVNMVFGSDAEGHHHHHH | soluble
MSLEVIKHDGPGRLGVIRLEPPVQTPALAGVDFTISPFNSYFNPKEYHDYDFNLAPSIPLSYYTPDEVIEKALKRIETVDYSKFNTFYFPALKRDKYYPRFVELIEENDFDAIYIGNSKVMIKDYRGFVATLRILREKFPNAVLITDLEPFFYPLAVYLGVDAFDVRSLKIYSYEGLGFTPFSPVIWDRPNDPIEFAREMIKIIKIAIQEGKLRYLVENFLPTVMNVGILRIADKEHGDYLEKYTPVHDKTVVFISEHSISRPEVFRWRKRIEERFEPPKGIDLLLIFPCSAKKPYSRSRSHMMYRKVMKEALGEKVHRVHELVVTSPYGVVPREWEWLAKYDIVVTGHWSESEVRFAGELLAQTIEKYPDIPIVAHVEGGYREAVKYAMELVNRDVIFTAVGSSTISKESLDKLKKTLKEFDLRDAEKDYRRYRFYENVRKVFDYYFGLGAGEAVLPENAQIVGSKMLRLIVNNSQTGTFQEGVISVTPFGMQRIYDKLNSYWVEVDFDIRGDVFAAGVERADEGIRPNDIVGIVRDGRVVAVGRAVLSGEEMVRAKKGIAVRVRKRVKNKEGHHHHHH | soluble
MSLEYLLQAAGIPRSTFFYHQKRLSKPDKHAELKDAIRASFERNKHRYGYRRVLLDLRNQGWVVNHKLVYKLMCEMGLRAKIRQRRPYVSYTGTISHIADNKLDRKFTPDQPNTVFVSDVTEFRVAGRKVYLSPVMDLFDRSIVAHTVATSPSTALTTDSLSKAIAACEPEPGWMIHTDQGFQYQHASWRDLIGDNGGVQSMSRKANCYDNAVMENFFGHLKTEMYHGEVFDTVAEFNQVIDEYIQWYNTERIQQRLKGLTPMQYRNQTLEALTAEGHHHHHH | not soluble
MSLFGIEVEEEASQIIHILLLQYISKSYSTYSLRSNQGYNPQTLDNNQQIYNSQLSNGNQQSEITCPYCHSTQVTAGKKGFGVGKAIVGGLLLGPVGLLGGLIGSKNIEFVYNCITLSASNNTNSAQWLREQSNNAKNIVNRYLDNDFAEALVAGSALVAMADGVIEYSERERLINYFKTSQEMKHIDTNMVLSKFDCYTQKLQRDFMMGKQNYEGHHHHHH | not soluble
MSLFITDKRVKESATALNPSMFQGLYLQDQMLKDPTYLPIYGSSELSRLDEFHPSNYFQVNNEGFTPYLVGKGGSQSLIHSLNFAAHMDQLKGKKIVFIVSPQWFIKRGSDEQHFAPNYSALQGLDLAFNDQIDPEIKKKMMKRMLRFKAVQNDAILSELYKAMVNGQTWKVNALKPAAKVYYSMLEKKDLYYSTTESSGPKRYISQSVKDKSWSELNKLADQSGKRHSGSNDFHIDNPVYKKLKPKVPKLKGKNKGRSYAVSPEYGDFEMMLDILKDAGAEPMFVTIPVNGKWYDYTGFPKKGRTDYYKKVNKQIRAKGFQVADFSGHEYDPYFMKDTIHIGWKGWVYVDKAIDEFYKTGKVTSSEGHHHHHH | not soluble
MSLGDSRTKPMEILLVEDGLVDARVTIHALRRSGLHHRLTLVRSVHEAILFMKRTGIFARAPRLDLLLLDMILPDGTGIDVLEEMSELQPDSSRVTTVVLTACEDASYRTRCDELGVYDYIQKPVSEDEFLRVVRDHKKLMIHLQQAAVSAAAGNHSEGHHHHHH | soluble
MSLGEESRDPVAALRLIKHDQQANLYVLCDLHPFLGDSPTLVRLLKEIAMAEGNHRPTVVLVSHALKLPAEVQRFAARFSLSLPSEDELLGIVREEATRWSERNRGARVRTDNRTLQQVVKNLRGLSHAEARLLARNVICNDGAITQEDLPELNRTKFQLLDLEGVLSFEYDTARFAEVGGLAALKRWLGERQSAFLAGKPGDQPKGMMLVGVQGAGKSLAAKAVAGLWGLPLLRLDFACLYNKYFGETERNLREALRLAEQMAPCVLWMDEVEKGISGGDQDNGVSQRVLGTLLTWMAEREAPVFMVATANAIDRLPPELIRKGRFDELFFVDLPTPEVRAEIFRIHLQRRELEPAQFDLHLLAAASEGFSGAEIEQAVVAALYAGQARQQAVDQDLLLRELARTSPLSVLMAEKLAALRTWAKGRAVPADEGHHHHHH | not soluble
MSLGEKASKVLITSVPKCGTHLLKQVVLGAPFYKRGKWISLRESIREQIDNCHDQTIMVGHLEYSEEIVRYLNEKGIRRLFIYRDPRDMLISYVFYVKEIAPKHELRNYFLHVLGSDEERIMKLITGFHYQEENLTYGDLTLHYQPFLPWIEDKGTLALRFEDLVSSNECKEQTISKIADYLWHGSTFDQYNKAVLKKRMLENIRPSHSGTFRKGVSGDWKNYFTAQHKSVFKEVAGQLLIDLGYEKDMDEGHHHHHH | soluble
MSLGEPMKQEKQQFIKTDWTIDMINRRQFEKYAIDILTATKDIHRGGWVERIDNKAWQYVRVYENGDIEVLITLQIIRFHKYFDTPVWLQFNPNHLLPADYVQLDHVMKYVDHSHLTRADLANDIYNINLQRYDFGLFGVTRDIYRSLSGDLETRYWGRRKSERQIRLYDKMREMKKHGKADDIPDGITDWWRLEFQFRGGKVESWQEEVMDKMQSFHVLAVDDNDDLSEIDKAILARVNADKFDFKRVGKRYAAKIRKMVRENVGFDTTVAELSLKTFNEQKDELQRQLDSMLAKYNIGAQTEEMTAYFEEELKQTGNLDFSVVESESALERNVIRNIAKTWREENSLTHRTNTEGHHHHHH | not soluble
MSLGFSRQAFYKRHLNDLARHEEDVLCSSIIQYCWHLRQAEHLPQAGFRELMVLCQQYFGPKFTLGRDRFCALLRRHGMMLRKRSVRPRTTNSRHRLYKYEDLLNTEPKFVPQRPGELLVADITYVAYQDGFAYLSLLTDAYSRCIVGYCLHPTLEVEGCLNALHQAFAFYDQHQIDTTNMIHHSDRGIQYAGKSYTDLLHGRGWRISMTQTGDPLHNALAERMNNTLKNSWHISSSKQSFDQALLSVDRAVRMYNEARPHQALRAKTPMQVITPESEGHHHHHH | soluble
